Data as given in patent US20220332804A1 (CSL INNOVATION, published 2022).
Changes are numbered by the printed parent chain.

Key:
Assay in all cases: SPR, KD relative to WT C2;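 also: biacore SPR at 37 °C, anti-C2 mAbs captured on anti-human IgG chips with alanine or serine point mutants of C2 as analyte, KD from 1:1 fit compared with wild-type C2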
human C2 M316A = biological target: T1, human C2 M316A (human, UniProt P06681 21-752)
T1 sequence: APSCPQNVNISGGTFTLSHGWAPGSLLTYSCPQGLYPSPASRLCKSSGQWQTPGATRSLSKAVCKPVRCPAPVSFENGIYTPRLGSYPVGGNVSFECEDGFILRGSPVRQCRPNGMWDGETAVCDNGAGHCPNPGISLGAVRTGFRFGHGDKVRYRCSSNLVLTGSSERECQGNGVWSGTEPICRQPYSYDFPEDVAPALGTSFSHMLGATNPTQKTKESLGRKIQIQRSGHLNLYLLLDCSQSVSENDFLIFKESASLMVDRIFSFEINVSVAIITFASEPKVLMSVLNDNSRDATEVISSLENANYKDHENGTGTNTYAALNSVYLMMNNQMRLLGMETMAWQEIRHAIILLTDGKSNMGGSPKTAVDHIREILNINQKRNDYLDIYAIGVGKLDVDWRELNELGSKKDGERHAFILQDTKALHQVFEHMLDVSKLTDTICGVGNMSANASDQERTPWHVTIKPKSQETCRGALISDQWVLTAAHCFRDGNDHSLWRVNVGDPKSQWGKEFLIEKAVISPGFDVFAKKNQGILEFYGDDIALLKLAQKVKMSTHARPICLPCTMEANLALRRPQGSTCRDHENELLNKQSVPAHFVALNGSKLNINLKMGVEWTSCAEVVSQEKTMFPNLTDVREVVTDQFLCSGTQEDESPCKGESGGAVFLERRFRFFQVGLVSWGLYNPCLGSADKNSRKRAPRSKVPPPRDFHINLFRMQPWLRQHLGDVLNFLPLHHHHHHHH

human C2 Y328A = biological target: T2, human C2 Y328A (human, UniProt P06681 21-752)
T2 sequence: T1 sequence with A296M, Y308A

human C2 W420A = biological target: T3, human C2 W420A (human, UniProt P06681 21-752)
T3 sequence: T1 sequence with A296M, W400A

human C2 I438A = biological target: T4, human C2 I438A (human, UniProt P06681 21-752)
T4 sequence: T1 sequence with A296M, I418A

B1: RF16-242 (antibody, human IgG4 S228P, lambda, V domains shown)
VH: EVQLLQSGAEVKKPGESLKISCKGSGYSFTSYWIGWVRQMPGKGLEWMGIIYPGDSDTRYSPSFQGQVTISADKSISTAYLQWSSLKASDTAMYYCARRGHYGDYFDYWGQGTLVTVSS
VL: SYELTQPPSVSVSPGQTARITCSGDALPKKYAYWYHQKSGQAPVLVIYEDRRRPSEIPERFSGSSSGTMATLTITGAQVEDEGVYFCYSRDRAGNQRVFGGGTQLTVLG
notes: pH-dependent anti-C2 antibody from a phage display library
Fold diff (human C2 M316A): 1 fold
Fold diff (human C2 Y328A): 6 fold
Fold diff (human C2 W420A): 2 fold
Fold diff (human C2 I438A): 1 fold
